Measurements taken from patent publication US20240279278A1, “NMU RECEPTOR 2 AGONISTS” (Boehringer Ingelheim International GmbH, priority 2023, published 2024).
Starred links: 1 amine or outer side, 2 acyl side, 3 side chain; linkers in the order of their positions; H or OH if unused. Non-standard residues stand in square brackets, D forms with d. *: point of attachment. Pipz(1-CH2CO,4-CH2CH2NH) = O=C(CN1CCN(CCN[*:1])CC1)[*:2]; C18 diacid = O=C(O)CCCCCCCCCCCCCCCCC(=O)*; γGlu = O=C(O)[C@H](CCC(=O)[*:2])N[*:1]; NMeL = CN[C@@H](CC(C)C)C(=O)O; hLys = NCCCCC[C@H](N)C(=O)O; Nle = CCCC[C@H](N)C(=O)O; Sar = CNCC(=O)O

T1: human neuromedin U receptor 1 (human, UniProt Q9HB89 24-426)
T1 sequence (looked up): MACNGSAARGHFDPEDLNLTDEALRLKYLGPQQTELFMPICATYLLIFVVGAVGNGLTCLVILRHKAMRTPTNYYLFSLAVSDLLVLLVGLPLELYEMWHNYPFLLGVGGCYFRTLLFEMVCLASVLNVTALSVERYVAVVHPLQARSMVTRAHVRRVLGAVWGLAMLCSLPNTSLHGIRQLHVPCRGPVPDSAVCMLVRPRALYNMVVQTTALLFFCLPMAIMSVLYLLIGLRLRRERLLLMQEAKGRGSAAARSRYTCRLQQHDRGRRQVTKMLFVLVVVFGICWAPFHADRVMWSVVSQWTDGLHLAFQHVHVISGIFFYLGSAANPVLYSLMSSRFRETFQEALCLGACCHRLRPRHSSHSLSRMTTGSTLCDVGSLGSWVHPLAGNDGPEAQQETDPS

B1: C18DA-gGlu3-Sar15-PipAc-Tyr-Phe-NMeLeu-Nle-Arg-Pro-Arg-Gly-NH2 (peptide)
peptide: EEEXXXXXXXXXXXXXXXXYFLXRPRG
HELM: PEPTIDE1{[O=C(O)CCCCCCCCCCCCCCCCC(=O)[*:2]].[gGlu].[gGlu].[gGlu].[Sar].[Sar].[Sar].[Sar].[Sar].[Sar].[Sar].[Sar].[Sar].[Sar].[Sar].[Sar].[Sar].[Sar].[Sar].[O=C(CN1CCN([*:1])CC1)[*:2]].Y.F.[meL].[Nle].R.P.R.G.[am]}$$$$V2.0
SMILES: CCCC[C@H](NC(=O)[C@H](CC(C)C)N(C)C(=O)[C@H](Cc1ccccc1)NC(=O)[C@H](Cc1ccc(O)cc1)NC(=O)CN1CCN(C(=O)CN(C)C(=O)CN(C)C(=O)CN(C)C(=O)CN(C)C(=O)CN(C)C(=O)CN(C)C(=O)CN(C)C(=O)CN(C)C(=O)CN(C)C(=O)CN(C)C(=O)CN(C)C(=O)CN(C)C(=O)CN(C)C(=O)CN(C)C(=O)CN(C)C(=O)CC[C@H](NC(=O)CC[C@H](NC(=O)CC[C@H](NC(=O)CCCCCCCCCCCCCCCCC(=O)O)C(=O)O)C(=O)O)C(=O)O)CC1)C(=O)N[C@@H](CCCNC(=N)N)C(=O)N1CCC[C@H]1C(=O)N[C@@H](CCCNC(=N)N)C(=O)NCC(N)=O
B2: C18DA-gGlu3-Sar9-AEPipAc-Tyr-Phe-NMeLeu-Nle-hLys-Pro-Arg-Gly-NH2 (peptide)
peptide: {C18 diacid}-[γGlu][γGlu][γGlu][Sar][Sar][Sar][Sar][Sar][Sar][Sar][Sar][Sar][Pipz(1-CH2CO,4-CH2CH2NH)]YF[NMeL][Nle][hLys]PRG-NH2
SMILES: CCCC[C@H](NC(=O)[C@H](CC(C)C)N(C)C(=O)[C@H](Cc1ccccc1)NC(=O)[C@H](Cc1ccc(O)cc1)NC(=O)CN1CCN(CCNC(=O)CN(C)C(=O)CN(C)C(=O)CN(C)C(=O)CN(C)C(=O)CN(C)C(=O)CN(C)C(=O)CN(C)C(=O)CN(C)C(=O)CN(C)C(=O)CC[C@H](NC(=O)CC[C@H](NC(=O)CC[C@H](NC(=O)CCCCCCCCCCCCCCCCC(=O)O)C(=O)O)C(=O)O)C(=O)O)CC1)C(=O)N[C@@H](CCCCCN)C(=O)N1CCC[C@H]1C(=O)N[C@@H](CCCNC(=N)N)C(=O)NCC(N)=O
B3: C18DA-gGlu3-Sar15-PipAc-Tyr-Phe-NMeLeu-Nle-Dbu-NMeAla-Arg-Gly-NH2 (peptide)
peptide: EEEXXXXXXXXXXXXXXXXYFLXXARG
HELM: PEPTIDE1{[O=C(O)CCCCCCCCCCCCCCCCC(=O)[*:2]].[gGlu].[gGlu].[gGlu].[Sar].[Sar].[Sar].[Sar].[Sar].[Sar].[Sar].[Sar].[Sar].[Sar].[Sar].[Sar].[Sar].[Sar].[Sar].[O=C(CN1CCN([*:1])CC1)[*:2]].Y.F.[meL].[Nle].[Dab].[meA].R.G.[am]}$$$$V2.0
SMILES: CCCC[C@H](NC(=O)[C@H](CC(C)C)N(C)C(=O)[C@H](Cc1ccccc1)NC(=O)[C@H](Cc1ccc(O)cc1)NC(=O)CN1CCN(C(=O)CN(C)C(=O)CN(C)C(=O)CN(C)C(=O)CN(C)C(=O)CN(C)C(=O)CN(C)C(=O)CN(C)C(=O)CN(C)C(=O)CN(C)C(=O)CN(C)C(=O)CN(C)C(=O)CN(C)C(=O)CN(C)C(=O)CN(C)C(=O)CN(C)C(=O)CC[C@H](NC(=O)CC[C@H](NC(=O)CC[C@H](NC(=O)CCCCCCCCCCCCCCCCC(=O)O)C(=O)O)C(=O)O)C(=O)O)CC1)C(=O)N[C@@H](CCN)C(=O)N(C)[C@@H](C)C(=O)N[C@@H](CCCNC(=N)N)C(=O)NCC(N)=O
B4: C20DA-gGlu3-Sar12-PipAc-Tyr-Phe-NMeLeu-Nle-Arg-Pro-Arg-Gly-NH2 (peptide)
peptide: EEEXXXXXXXXXXXXXYFLXRPRG
HELM: PEPTIDE1{[O=C(O)CCCCCCCCCCCCCCCCCCC(=O)[*:2]].[gGlu].[gGlu].[gGlu].[Sar].[Sar].[Sar].[Sar].[Sar].[Sar].[Sar].[Sar].[Sar].[Sar].[Sar].[Sar].[O=C(CN1CCN([*:1])CC1)[*:2]].Y.F.[meL].[Nle].R.P.R.G.[am]}$$$$V2.0
SMILES: CCCC[C@H](NC(=O)[C@H](CC(C)C)N(C)C(=O)[C@H](Cc1ccccc1)NC(=O)[C@H](Cc1ccc(O)cc1)NC(=O)CN1CCN(C(=O)CN(C)C(=O)CN(C)C(=O)CN(C)C(=O)CN(C)C(=O)CN(C)C(=O)CN(C)C(=O)CN(C)C(=O)CN(C)C(=O)CN(C)C(=O)CN(C)C(=O)CN(C)C(=O)CN(C)C(=O)CC[C@H](NC(=O)CC[C@H](NC(=O)CC[C@H](NC(=O)CCCCCCCCCCCCCCCCCCC(=O)O)C(=O)O)C(=O)O)C(=O)O)CC1)C(=O)N[C@@H](CCCNC(=N)N)C(=O)N1CCC[C@H]1C(=O)N[C@@H](CCCNC(=N)N)C(=O)NCC(N)=O
B5: C20DA-gGlu3-Sar15-PipAc-Tyr-Phe-NMeLeu-Nle-Orn-Pro-Arg-Gly-NH2 (peptide)
peptide: EEEXXXXXXXXXXXXXXXXYFLXXPRG
HELM: PEPTIDE1{[O=C(O)CCCCCCCCCCCCCCCCCCC(=O)[*:2]].[gGlu].[gGlu].[gGlu].[Sar].[Sar].[Sar].[Sar].[Sar].[Sar].[Sar].[Sar].[Sar].[Sar].[Sar].[Sar].[Sar].[Sar].[Sar].[O=C(CN1CCN([*:1])CC1)[*:2]].Y.F.[meL].[Nle].[Orn].P.R.G.[am]}$$$$V2.0
SMILES: CCCC[C@H](NC(=O)[C@H](CC(C)C)N(C)C(=O)[C@H](Cc1ccccc1)NC(=O)[C@H](Cc1ccc(O)cc1)NC(=O)CN1CCN(C(=O)CN(C)C(=O)CN(C)C(=O)CN(C)C(=O)CN(C)C(=O)CN(C)C(=O)CN(C)C(=O)CN(C)C(=O)CN(C)C(=O)CN(C)C(=O)CN(C)C(=O)CN(C)C(=O)CN(C)C(=O)CN(C)C(=O)CN(C)C(=O)CN(C)C(=O)CC[C@H](NC(=O)CC[C@H](NC(=O)CC[C@H](NC(=O)CCCCCCCCCCCCCCCCCCC(=O)O)C(=O)O)C(=O)O)C(=O)O)CC1)C(=O)N[C@@H](CCCN)C(=O)N1CCC[C@H]1C(=O)N[C@@H](CCCNC(=N)N)C(=O)NCC(N)=O
B6: C18DA-gGlu3-Sar12-PipAc-Tyr-Phe-NMeLeu-Nle-Arg-Pro-Arg-Gly-NH2 (peptide)
peptide: EEEXXXXXXXXXXXXXYFLXRPRG
HELM: PEPTIDE1{[O=C(O)CCCCCCCCCCCCCCCCC(=O)[*:2]].[gGlu].[gGlu].[gGlu].[Sar].[Sar].[Sar].[Sar].[Sar].[Sar].[Sar].[Sar].[Sar].[Sar].[Sar].[Sar].[O=C(CN1CCN([*:1])CC1)[*:2]].Y.F.[meL].[Nle].R.P.R.G.[am]}$$$$V2.0
SMILES: CCCC[C@H](NC(=O)[C@H](CC(C)C)N(C)C(=O)[C@H](Cc1ccccc1)NC(=O)[C@H](Cc1ccc(O)cc1)NC(=O)CN1CCN(C(=O)CN(C)C(=O)CN(C)C(=O)CN(C)C(=O)CN(C)C(=O)CN(C)C(=O)CN(C)C(=O)CN(C)C(=O)CN(C)C(=O)CN(C)C(=O)CN(C)C(=O)CN(C)C(=O)CN(C)C(=O)CC[C@H](NC(=O)CC[C@H](NC(=O)CC[C@H](NC(=O)CCCCCCCCCCCCCCCCC(=O)O)C(=O)O)C(=O)O)C(=O)O)CC1)C(=O)N[C@@H](CCCNC(=N)N)C(=O)N1CCC[C@H]1C(=O)N[C@@H](CCCNC(=N)N)C(=O)NCC(N)=O
B7: C18DA-gGlu3-Sar15-PipAc-Tyr-Phe-NMeLeu-Nle-Dbu-Pro-Arg-Gly-NH2 (peptide)
peptide: EEEXXXXXXXXXXXXXXXXYFLXXPRG
HELM: PEPTIDE1{[O=C(O)CCCCCCCCCCCCCCCCC(=O)[*:2]].[gGlu].[gGlu].[gGlu].[Sar].[Sar].[Sar].[Sar].[Sar].[Sar].[Sar].[Sar].[Sar].[Sar].[Sar].[Sar].[Sar].[Sar].[Sar].[O=C(CN1CCN([*:1])CC1)[*:2]].Y.F.[meL].[Nle].[Dab].P.R.G.[am]}$$$$V2.0
SMILES: CCCC[C@H](NC(=O)[C@H](CC(C)C)N(C)C(=O)[C@H](Cc1ccccc1)NC(=O)[C@H](Cc1ccc(O)cc1)NC(=O)CN1CCN(C(=O)CN(C)C(=O)CN(C)C(=O)CN(C)C(=O)CN(C)C(=O)CN(C)C(=O)CN(C)C(=O)CN(C)C(=O)CN(C)C(=O)CN(C)C(=O)CN(C)C(=O)CN(C)C(=O)CN(C)C(=O)CN(C)C(=O)CN(C)C(=O)CN(C)C(=O)CC[C@H](NC(=O)CC[C@H](NC(=O)CC[C@H](NC(=O)CCCCCCCCCCCCCCCCC(=O)O)C(=O)O)C(=O)O)C(=O)O)CC1)C(=O)N[C@@H](CCN)C(=O)N1CCC[C@H]1C(=O)N[C@@H](CCCNC(=N)N)C(=O)NCC(N)=O
B8: C20DA-gGlu4-Sar12-AEPipAc-Tyr-Phe-NMeLeu-Nle-Orn-NMeAla-Arg-Gly-NH2 (peptide)
peptide: EEEEXXXXXXXXXXXXXYFLXXARG
HELM: PEPTIDE1{[O=C(O)CCCCCCCCCCCCCCCCCCC(=O)[*:2]].[gGlu].[gGlu].[gGlu].[gGlu].[Sar].[Sar].[Sar].[Sar].[Sar].[Sar].[Sar].[Sar].[Sar].[Sar].[Sar].[Sar].[O=C(CN1CCN(CCN[*:1])CC1)[*:2]].Y.F.[meL].[Nle].[Orn].[meA].R.G.[am]}$$$$V2.0
SMILES: CCCC[C@H](NC(=O)[C@H](CC(C)C)N(C)C(=O)[C@H](Cc1ccccc1)NC(=O)[C@H](Cc1ccc(O)cc1)NC(=O)CN1CCN(CCNC(=O)CN(C)C(=O)CN(C)C(=O)CN(C)C(=O)CN(C)C(=O)CN(C)C(=O)CN(C)C(=O)CN(C)C(=O)CN(C)C(=O)CN(C)C(=O)CN(C)C(=O)CN(C)C(=O)CN(C)C(=O)CC[C@H](NC(=O)CC[C@H](NC(=O)CC[C@H](NC(=O)CC[C@H](NC(=O)CCCCCCCCCCCCCCCCCCC(=O)O)C(=O)O)C(=O)O)C(=O)O)C(=O)O)CC1)C(=O)N[C@@H](CCCN)C(=O)N(C)[C@@H](C)C(=O)N[C@@H](CCCNC(=N)N)C(=O)NCC(N)=O

Biological target: T1, human neuromedin U receptor 1
Experiment: cell-based or functional assay

EC50 (hNMUR1) buffer [nM] | Binder
130 | B1
1400 | B2
> 1000 | B3
72 | B4
470 | B5
110 | B6
1100 | B7
1200 | B8
